According to US20180134781A1 (Regeneron, published 2018):

B1: H4H15321P (antibody, human IgG4, V domains shown)
VH: EVQLVESGGGLVQPGGSLRLSCAASGFTFSSYAMSWVRQAPGKGLEWVSAITGSGGRTYYADSVKGRFTISRDNAKNTLYLQMNSLRAEDTAVYYCAKNFPFDYWGQGTLVTVSS
VL: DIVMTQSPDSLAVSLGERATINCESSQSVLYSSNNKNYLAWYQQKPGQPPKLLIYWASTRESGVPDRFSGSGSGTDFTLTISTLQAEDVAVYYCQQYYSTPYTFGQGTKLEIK
notes: human IgG4 Fc (H4H prefix)
B2: H4H15367P2 (antibody, human IgG4, V domains shown)
VH: QVQLVESGGGVVQPGRSVRLSCGASGFTFKYYGMHWVRQAPGKGLEWVAVIWYDGRNKFYADSVKGRFTISRDNSKNTVNLEMNNLRAEDTAIYYCARDGGTADGDYFDYWGQGTLVTVSS
VL: not shown
notes: human IgG4 Fc (H4H prefix)
B3: H4H15369P2 (antibody, human IgG4, V domains shown)
VH: EVQLVESGGGLVQPGGSLRLSCVGTGFTFSNYAMSWVRQAPGKGLEWVSGISGRSSGTFYADSVKGRFTISRDNSQNTLYLQMNSLGAEDTAVYYCAKVSRYNWDYVPFDFWGQGTLVTVSS
VL: not shown
notes: human IgG4 Fc (H4H prefix)
B4: H4H15347P (antibody, human IgG4, V domains shown)
VH: EVQLVESGGGLVQPGGSLRLSCAASGFTFRNYAMNWARQAPGKGLEWVSGITGSGGATYYADSVKGRFTISRENSKNTLFLQMDTLRAEDTAVYYCAKDRRYFPTSGGPQWGQGTLVTVSS
VL: DIVMTQSPLSLPVTPGEPASISCRSSRSLLHSSGYNYLDWYLQKPGQSPQLLLYLGSNRASGVPDRFSGSGSGTYFTLKISRVDAEDVGVYYCMQALQTPWTFGQGTKVEIK
notes: human IgG4 Fc (H4H prefix)
B5: H4H15330P (antibody, human IgG4, V domains shown)
VH: QVQLVESGGGLVKPGGSLRLSCAASGFTFSDYYMSWIRQAPGKGLEWISHISGSGRTTHYADSMKGRFTISRDNAKNSLYLQMNSLRAEDTAVYYCVREGGFNWNYEGTFDIWGQGTMVTVSS
VL: DIVMTQTPLSSPVTLGQPASISCRSSQSLLHSDQNTYLSWLHQRPGQPPRLLIYKISNRFSGVPDRFSGSGAGTDFTLKISRVEAEDVGIYYCMQGTQFPLTFGGGTKVEIK
notes: human IgG4 Fc (H4H prefix)
B6: H4H15335P (antibody, human IgG4, V domains shown)
VH: QVQLVESGGGVVQPGRSLRLSCAASGFTFNNYGIHWVRQAPGKGLEWVAVISYDESNKYYADSVKGRFTISRDNSKNTLYLQMNSLRAEDTAVYYCAKDIRIAARRHYYYYGMDVWGQGTTVTVSS
VL: DIQMTQSPSSVSASVGDRVTITCRASQGISRWLAWYQQKPGKAPKLLIYAASSLESGVPARFSGSGSGTDFTLTISSLQPEDFATYYCQQANSFPITFGPGTKVDIK
notes: human IgG4 Fc (H4H prefix)
B7: H4H15355P2 (antibody, human IgG4, V domains shown)
VH: QVQLVESGGGVVQPGRSLRLSCAASGFTFTNYAMHWVRQAPGKGLEWVAVISYDGSHTYFADSVKGRFTMSRDNSKNTISLQMNSLRPEDTAVYFCAGGGATTWFYFYGLDVWGQGTTVTVSS
VL: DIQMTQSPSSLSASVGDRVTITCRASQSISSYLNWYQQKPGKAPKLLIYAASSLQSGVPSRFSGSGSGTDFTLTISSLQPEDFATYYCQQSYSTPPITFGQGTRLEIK
notes: human IgG4 Fc (H4H prefix)
B8: H4H15362P2 (antibody, human IgG4, V domains shown)
VH: QVQLVESGGGVVQPGRSLRLSCAASGFTFSSYGMHWVRQAPGKGLEWVAVIWYDGSNKYYADSVKGRFTISRDNSKNTLYLQMNSLRAEDTAVYYCARDWVRFLEWFPHFDYWGQGTLVTVSS
VL: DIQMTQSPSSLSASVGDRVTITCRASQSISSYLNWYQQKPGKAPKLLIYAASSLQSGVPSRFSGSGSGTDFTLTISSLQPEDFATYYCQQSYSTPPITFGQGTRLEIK
notes: human IgG4 Fc (H4H prefix)
B9: H4H15363P2 (antibody, human IgG4, V domains shown)
VH: EVQLVESGGGLVQPGGSLRLSCAASGFTFSNYAMSWVRQVPGKGLEWVSTISGSGGSTYYADSVKGRFTISRDNSKNSLYLQMNSLRAEDTAVYYCAKLVRGVIGWFDPWGQGTLVTVSS
VL: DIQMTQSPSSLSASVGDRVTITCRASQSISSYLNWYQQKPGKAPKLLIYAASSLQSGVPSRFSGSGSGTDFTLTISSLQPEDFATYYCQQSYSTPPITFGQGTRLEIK
notes: human IgG4 Fc (H4H prefix)
B10: H4H15357P2 (antibody, human IgG4, V domains shown)
VH: EVQLVESGGGLVKPGGSLRLSCTASGFTFGNAWMSWVRQAPGKGLEWVGLIKGKTDGGTTNYAAPVKGRFTISRDDSKNTLYLHLNSLRTEDTALYYCTTDQVELRQYYYYGLDVWGQGTTVTVSS
VL: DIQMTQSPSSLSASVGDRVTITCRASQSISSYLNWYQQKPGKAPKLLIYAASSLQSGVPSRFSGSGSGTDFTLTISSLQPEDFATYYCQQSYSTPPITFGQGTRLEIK
notes: human IgG4 Fc (H4H prefix)

Molecular target: T1, hLDLR-mFc (negative control protein with the same mFc tag) (human, UniProt P01130 22-788)
T1 construct: also called Irrelevant control; not shown: mFc tag ('the same mFc tag', mouse IgG2a Fc)
Assay: BLI (Octet HTX), hLDLR-mFc captured on AMC sensor
Method: Binding of ANGPTL8 antibodies to human and monkey ANGPTL8 proteins was investigated using Bio-layer Interferometry with an Octet HTX biosensor platform (ForteBio, A Division of Pall Life Sciences). All experiments were performed at 25° C. in 10 mM HEPES pH 7.4, 150 mM NaCl, 0.05% v/v Surfactant Tween-20, and 1 mg/ml BSA with the reaction multiwell plate agitated at 1000 rpm. Approximately 1.6 nm of human ANGPTL8 produced with a C-terminal mouse IgG2a Fc tag (hANGPTL8-mFc; SEQ ID NO: 340) or cynomolgus monkey ANGPTL8 produced with a C-terminal mouse IgG2a Fc tag (MfANGPTL8-mFc; SEQ ID NO: 341) was captured onto anti-mFc (AMC) Octet biosensors by submerging the sensors into wells containing 10 μg/mL of each protein for 4 minutes. Under the same conditions a negative control protein with the same mFc tag (hLDLR-mFc) was also coupled to the AMC sensor. All four sensors, […] and one blank, were then submerged into wells containing 100 nM of different ANGPTL8 monoclonal antibodies or an isotype control for 4 minutes.

T1 sequence (P01130 22-788): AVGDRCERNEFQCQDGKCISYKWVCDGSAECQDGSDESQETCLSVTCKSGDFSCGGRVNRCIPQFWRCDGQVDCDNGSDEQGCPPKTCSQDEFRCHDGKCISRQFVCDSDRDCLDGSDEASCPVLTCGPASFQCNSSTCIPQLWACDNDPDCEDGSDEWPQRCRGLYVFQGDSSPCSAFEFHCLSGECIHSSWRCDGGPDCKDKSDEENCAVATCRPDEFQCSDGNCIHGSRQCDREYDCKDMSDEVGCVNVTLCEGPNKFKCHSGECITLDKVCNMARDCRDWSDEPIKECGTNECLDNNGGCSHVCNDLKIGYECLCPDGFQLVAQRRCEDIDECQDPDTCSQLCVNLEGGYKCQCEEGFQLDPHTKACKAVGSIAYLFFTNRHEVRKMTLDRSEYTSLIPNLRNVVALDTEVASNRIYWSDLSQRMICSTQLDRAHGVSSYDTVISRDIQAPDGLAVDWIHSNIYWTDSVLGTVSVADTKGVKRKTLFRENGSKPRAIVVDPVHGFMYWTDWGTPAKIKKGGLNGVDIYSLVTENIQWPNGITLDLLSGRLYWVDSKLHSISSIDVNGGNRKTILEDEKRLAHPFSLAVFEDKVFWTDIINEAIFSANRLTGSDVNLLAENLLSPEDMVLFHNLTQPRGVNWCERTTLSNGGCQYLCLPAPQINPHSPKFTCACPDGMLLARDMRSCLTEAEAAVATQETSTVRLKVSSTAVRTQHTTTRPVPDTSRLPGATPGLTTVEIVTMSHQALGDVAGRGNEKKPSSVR

| Binder | binding result |
| --- | --- |
| B1 | no binding (tested: 0.03 nm at 100 nM mAb) |
| B2 | no binding (tested: 0.03 nm at 100 nM mAb) |
| B3 | no binding (tested: 0.03 nm at 100 nM mAb) |
| B4 | no binding (tested: 0.03 nm at 100 nM mAb) |
| B5 | no binding (tested: 0.03 nm at 100 nM mAb) |
| B6 | no binding (tested: 0.03 nm at 100 nM mAb) |
| B7 | no binding (tested: 0.03 nm at 100 nM mAb) |
| B8 | no binding (tested: 0.03 nm at 100 nM mAb) |
| B9 | no binding (tested: 0.03 nm at 100 nM mAb) |
| B10 | no binding (tested: 0.03 nm at 100 nM mAb) |
